In this experiment the target is SARS-CoV-2 spike protein (FL-GCN4-Avi-His, biotinylated) (SARS-CoV-2, Wuhan-Hu-1, UniProt P0DTC2, stabilised, biotin on the Avi tag). Description: BLI.

B1: CV27 IgG (antibody, V domains shown)
VH: QVQLVESGGGVVQPGRSLRLSCAASGFTFSSYAMHWVRQAPGKGLEWVALISYDGSNKYYADSVKGRFTISRDNSKNTLYLQMNSLRAEDTAVYYCARSFGGSYYYGMDVWGQGTTVTVSS
VL: QSALTQPASVSGSPGQSITISCTGTSSDVGGYNYVSWYQQHPGKAPKLMIYDVSNRPSGVSNRFSGSKSGNTASLTISGLQAEDEADYYCSSYTSSSTPYVFGTGTKVTVL
For the molecule B1, the binding result is recorded as “binds”.

B2: CV27 FAb (Fab, V domains shown)
VH: QVQLVESGGGVVQPGRSLRLSCAASGFTFSSYAMHWVRQAPGKGLEWVALISYDGSNKYYADSVKGRFTISRDNSKNTLYLQMNSLRAEDTAVYYCARSFGGSYYYGMDVWGQGTTVTVSS
VL: QSALTQPASVSGSPGQSITISCTGTSSDVGGYNYVSWYQQHPGKAPKLMIYDVSNRPSGVSNRFSGSKSGNTASLTISGLQAEDEADYYCSSYTSSSTPYVFGTGTKVTVL
In the case of B2, the binding result is “binds”.

(Values after doi:10.1101/2022.01.24.477625 (bioRxiv, 2022).)
